# From PMC3578790, “Tight Interconnection and Multi-Level Control of Arabidopsis MYB44 in MAPK Cascade Signalling”
# What was measured:
# [1] = target: MYB44 S145D (Arabidopsis thaliana? (Arabidopsis, …, UniProt Q9FDW1 1-305, S145D)); assay: EMSA; no discernible difference from wild type; 10 mM Tris pH 8.0, 5 mM MgCl2, 100 mM KCl, 0.02% Triton X-100, 0.1 mg/ml BSA, 0.25% Tween, 2.5 mM DTT, 3 ng/ul poly(dIdC); 30 min room temperature; 5% PAGE in 0.5x TBE or TAE (TAE main) at 4 C; conditions: protein: recombinant; label: 5' Dy782 (Methods; called IRDye in Results); (only one strand printed)
# [2] = target: MYB44 S145A (Arabidopsis thaliana? (Arabidopsis, …, UniProt Q9FDW1 1-305, S145A)); assay: as above; conditions: protein: recombinant; label: 5' Dy782 (Methods; called IRDye in Results); (only one strand printed)
# Sequence of MYB44 S145A (Arabidopsis thaliana? (Q9FDW1 whole entry S145A): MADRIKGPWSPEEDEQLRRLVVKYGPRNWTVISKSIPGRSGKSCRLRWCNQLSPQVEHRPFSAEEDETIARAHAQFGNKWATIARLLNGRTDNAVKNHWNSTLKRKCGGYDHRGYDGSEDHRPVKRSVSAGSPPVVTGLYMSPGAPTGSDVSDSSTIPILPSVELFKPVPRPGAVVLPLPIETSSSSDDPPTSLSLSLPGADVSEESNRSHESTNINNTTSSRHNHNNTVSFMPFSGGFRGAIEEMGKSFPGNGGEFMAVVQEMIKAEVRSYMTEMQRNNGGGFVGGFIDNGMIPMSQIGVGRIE
# Sequence of MYB44 S145D (Arabidopsis thaliana? (Q9FDW1 whole entry S145D): as the sequence (Q9FDW1 whole entry S145A) above, with A145D counted along it
binder,measurement,setting,value
MBSII (dsDNA) DNA 1: AGCTTCAAAAGTTAGTTACG DNA 2: CGTAACTAACTTTTGAAGCT,binding result,[1],binds
same,binding result,[2],binds
